This is an account of results in the nanobody polyreactivity screen of Harvey et al. (2022).

A short description of this data set: yeast display, Sf9 membrane polyspecificity reagent, FACS + sequencing; frameworks hold sequencing errors. In short, it runs like this:
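In a synthetic yeast display library (Saccharomyces cerevisiae BJ5465), nanobody expression was induced with galactose for 36–48 hours. FACS gates were set low and high (top ~1%) using anti-HA fluorescence for expression and streptavidin fluorescence for binding of the Sf9 membrane reagent. Each polyreactivity label is drawn from the gate of origin.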
On to “QVQLVESGGGLVQAGGSLRLTCAASGRIFFYYSMGWYRQAPGKERELVAAIRSGGSTNYADSVKGRFTISRDNAKNTVYLQMYILKPEDTAGYYSAAHPTRYYTPRYYYWGLGTQVTVSS”, for which the “polyreactivity (PSR sort gate)” value is “high polyreactivity”.

Turning to “QVQLVESGGGLVQAGGSLRLSCAASGGTLYLYAMGWYRPAPGKERELVAAISYNGGSTYADSVKGRFTISRDNAKNTVYLQMNSLKPEDTAVYYCAADRSPRCLGGYWGQGTQVTVSS”, the “polyreactivity (PSR sort gate)” value is reported as “low polyreactivity”.

As to “QVQLVESGGGLVQAGGSLRLSCAASGSIFSYYAMGWYRQAPGKERELVAAISQSGGTTYYADSVKGRFTISRDNAKNTDYLQMKSLKPEDTAVYYCAARAPSSFDTQYYYWGQGTQVTVSS”, the “polyreactivity (PSR sort gate)” value is “low polyreactivity”.

“QVQLVESGGGLVQAGGSLRLSCAASGRTLRRYAMGWYRQAPGKERELVADISWRGTSTNYADSVKGRFTISRDNAKNTVYLQMNSLKPEDTAVYYCAAKQTYTRLHYLGPSVWDNYDYWGQGTQVTVSS”: the “polyreactivity (PSR sort gate)” value is listed as “high polyreactivity”.

In the case of “QVQLVESGGALVQAGGSLRLSCAASGRIFGVYAMGWYRQAPGKERELVAAITRGASTYYADSVKGRFTISRDNSKNTVYLQMNSLKPEDTAVYYCAVSQYRGIYRKYDYWGHGTQVTVSS”, the “polyreactivity (PSR sort gate)” value is reported as “high polyreactivity”.

Take “QVQLVESGGGLVQAGGSLRLSCAASGSIFSQKAMVWYRQAPGKERELVASISTGDSSTYADSVKGRFTISRDNAKNTVYLQMNSLKREDTAVYYCNAYRYNALPWRYVGYDYWGQGTQVTVSS”: the “polyreactivity (PSR sort gate)” value is “low polyreactivity”.

As for “QVQLVESGGGLVQAGGSLRLSCAASGIIFRLNTMGWYRQAPGKERELVAAITSGGSTQYADSVKGRFTISRDNAKNTVYLQMNSLKPEDSAVYYCAAGHRANYWAWHFYYPGDFWGQGTQVTVSS”, the “polyreactivity (PSR sort gate)” value is listed as “low polyreactivity”.

With “QVQLVESGGGLVQAGGSLRLSCAASGIIFGSYTMGWYIQAPGKERELVATISFSGGTTNYADSVKGRFTISRDNAKNTVYLQMNSLKPEDTAVYYCAARPAPATGKLDYWGQGTQVTVSS”, the “polyreactivity (PSR sort gate)” value is “low polyreactivity”.

With “QVQLVESGGGLVQAGGSLRLICAASGSTFLVNTMGWYRQAPGKERELVAAISYSGGRTYYADSVKGRFTISRDNAKNTVYFQMNSLKPEDTAVYYCAARYYRTRREGVDYWGQGTQVTVSS”, the “polyreactivity (PSR sort gate)” value is on record as “high polyreactivity”.

With “QVQLVESGGGLVQAGGSLRLSCAASGFTFPYYAVGWYRQAPGKERELVAAISKGGTRTYYADSVKGRFTISRDNAKNTVYLQMNSLKPEDTAVYYCAATRIYQEMDYWGQGTQVTVSS”, the “polyreactivity (PSR sort gate)” value was “high polyreactivity”.

Turning to “QVQLVESGGGLVQAGGSLRLSCAASGIILFYAMGWYRQAPGKERELVAAISSGGGTSYADSVKGRFTISRDNAKNTVYLHMNSLKPEDTAVYYCNADGYSYFWYPSYARGHDYWGQGTQVTVSS”, the “polyreactivity (PSR sort gate)” value is “low polyreactivity”.

As to “QVQLVESGGGLVQAGGSLRLSCGASGSIFKYYAMGWYREARGKERELVAAITWSGGRTNYADSVKGRFTISRDNAKNTVYLQMNSLKPEDTAVYYCAATRRRYRPYEYWGLGTQVTVSS”, the “polyreactivity (PSR sort gate)” value was “high polyreactivity”.

In the case of “QVQLVESGGGLVQAGGSLRLSCAASRRTFIANAMGWYRQAPGNGREWVAVITLNGGSTYYADSVKRRFTLSRDNAKNTVYLQMNSLKPEDTAVYYCAADVYWDYYWGQGTQVTVSS”, the “polyreactivity (PSR sort gate)” value was “low polyreactivity”.

For “QVQLVESGGRLVQAGGSLRLSCAASGSIFYSYAMGWYRQAPGKERELVAAISRSGVSTYYADSVKGRFTISRDNAKNTVYFQMNSLKPEDTAVYYCASPYFVSYQGYDYWGQGTQVTVSS”, the “polyreactivity (PSR sort gate)” value is recorded as “high polyreactivity”.

For “QVQLVESGGGLVQAGGSLRLSCAASGFIFSYLYAMGWYRQAPGKERELVAAITYNGGSTYYADSVKGRFTISRDIAKNTVYLQMNSLKPEDTAVYYCAARKRYRANSYWEMAYWGQGTQVTVSS”, the “polyreactivity (PSR sort gate)” value is reported as “high polyreactivity”.

For “QVQLVESGGGLVQAGGSLRLSCAASGFTFRSNAMGWYRQAPGKARELVAAISYSGDSTYYADSVKGRFTISRDTAKNTVYLQMNSLKPEDTAVYYCAADGYDQWGRVGVYLIWTSYDYWGQGTQVTVSS”, the “polyreactivity (PSR sort gate)” value is “high polyreactivity”.

In the case of “QVQLQQSGDGLVQAVGSLRLSCAPSGSLSGYYSMGWYREAPGKVRELVAGIDAFGSSTNYADCVIGRFTISRDKATNTVYLQMKSLKPEDTAVYYCAARPDGVRLFSYWGQGTQVTESS”, the “polyreactivity (PSR sort gate)” value is on record as “low polyreactivity”.

With “QVQLVESGGGLVQAGGSLRLSCAASGRIFTKYAMGWYRQAPGKERELVAAISSRGGSTYYADSVKGRFTISRDNAKNTVYLQMNSLKPEDTAVYYCAAGYLPRYYYTPQFDGDYWGQGTQVTVSS”, the “polyreactivity (PSR sort gate)” value is reported as “high polyreactivity”.

Consider “QVQLVESGGGLVQAGGSLRLSCAASGFTIYAYTMGWYRQAPGKERDLVASITSRGGTTYYADSVKGRFTISRDNEKNTVYLQMNSLKPEDTAVYYCNARGYFGWYAMDYCGQGTQVTVSS”, for which the “polyreactivity (PSR sort gate)” value was “high polyreactivity”.

With “QVQLVESGGGLVQAGGSLRLSCAASARNFGYYAMGWYRPAPGKERELVAAISSGGNTYYADSVKGRFTISRDNAKNTVYLQMNSLKPEDTAVYYCNVVYVGWQYGYDYWGQGTQVTVSS”, the “polyreactivity (PSR sort gate)” value is on record as “low polyreactivity”.

With “QVQLVQSGGGLVQAGGSLSLSCAASVFIFYYYDMGWYIQAPGKERELVAAISGRDGSTYYADSVKGRFTISRDNAKNTVYLQMNSLKPEDTAVYYCAAANRSRSIGSQYGYWGQGTQVTVSS”, the “polyreactivity (PSR sort gate)” value is “high polyreactivity”.

As to “QVQLVESGGGLVQAGGSLRLSCAASGRIFEWYAMGWYRQAPGKEREFVARITIGGRTYYADSVKGRFTISRDNAKNTVYFQMNSVKREDTAVYYCNAPYAWARPYIVSSTYDYWGQGTQVTVSS”, the “polyreactivity (PSR sort gate)” value is “high polyreactivity”.

For “QLKLVESGGGLVQAGGSLRLSCAASGSIFDVNAMGWYREAPGKEMELVAAISDSGGSTYYADSVKGRFTISRDNAKNTVYLQMNSLKPEDTAVYYCNADWSWYHYYDCDYWGQGTQVTVSS”, the “polyreactivity (PSR sort gate)” value was “low polyreactivity”.

Take “QVQLVESGGGLVQAGGSLRLSCAASGSTFFTYAMGWYRQAPGKERELVAGISYSGGSTYYADSVKGRFTISRDNAKNTVYVQMNSLKPEDTAVYYCNAYISYGDFDLEFYYWGQGTQVTVSS”: the “polyreactivity (PSR sort gate)” value is listed as “low polyreactivity”.

As for “QVQLVESGGGLVQAGGSLRLSCAASGIISTYYVMGWYRQAPGKERELVAAITGGDTSTYYADSVKGRFTISRDNAKKTVYLQMNSLKPEDTADYYCAKEYYYARGARYDYWGQGTQVTVSS”, the “polyreactivity (PSR sort gate)” value is reported as “low polyreactivity”.

Turning to “QVQLVESGGGLVQAGGSLRLSCAASVSIFYRNARGWYRQEPGKEREMVAAISSSVSSTYYADSVKGRFTISRDNAKNTVYLQMNSLKPEDTAVYYCAARRFQRGGDYFYRYLYDYWGQGTQVTVSS”, the “polyreactivity (PSR sort gate)” value was “low polyreactivity”.

As for “QVQLVESGGGLVQAGGRLRLSCAASGSTFIDYAMGWYIHAPGKERELVAAITWDGSSTYYADSVKGRFTISRDNAKNTVYLQMNSLKPEDTAVYYCATDYAGQYPVDGQPIHDYWGQGTQVTVSS”, the “polyreactivity (PSR sort gate)” value is “low polyreactivity”.

With “QVQLVESGGGLVQAGGSLRLSCAASGIIFWWYAMGWYRQAPGKEMELVAAISGTGGSTYYADSVKGRFTISRDNAKNTVYLQMNSLKPEDTAFYYCAARGKSSSYYDYDYWGQGTQVTVSS”, the “polyreactivity (PSR sort gate)” value was “low polyreactivity”.

With “QVQLEESGGGLVQAGGSLRLICAASGSIFDSNSMGWYRQAPGKVRELVAGISRGGGSTYYADSVKGRFTISRDNAKNTVYLQMNSLKPEDTAVYYCNVLTYRWLYARRYEYWGQGTQVTVSS”, the “polyreactivity (PSR sort gate)” value is given as “high polyreactivity”.

Regarding “QVQLVDSAGGLVQAGGSLRLSCAAYGRTNYLYSMGWYRQAPGKERELVAAIRTGDGSTYYADSVKGRFTISRDNAKNTVYLQMISLKPEDTAVYYCAARVGKRYNWGQGTQVTVSS”, the “polyreactivity (PSR sort gate)” value is listed as “high polyreactivity”.

“QVQLVESGGGLVQAGGSLRLSCAASGSTFATYAMGWYRQAPGKERELVAAITLRGGRTYYADSVKGRFTISRDNAKNTVYLQMNSLKPEDTAVYYCAAEYYYLSFGLTWWRGFDYWGQGTQVTVSS”: the “polyreactivity (PSR sort gate)” value is “high polyreactivity”.

In the case of “QVQLVESGVGLVQAGGSLRLSCAASGSTFYRYAMGWYRQAPGKERELVAAIRGSGGRTYYADSVKGRFTISRDNAKNTVYLQMNSLKPEDTAVYYCAAYRGVSQKGDYWGQGTQVTVSS”, the “polyreactivity (PSR sort gate)” value is given as “high polyreactivity”.

Turning to “QVQLVESGGGLVQAGGSLRLSCAASGSIFTYNVMGWYRQAPGKERELVASISWSGGRTYYADSVKGRFTISRDYAKNTVYLQMNSLKPEDTAVYYCNNVRPPVYFPNRDYWGQGTQVNVSS”, the “polyreactivity (PSR sort gate)” value was “low polyreactivity”.

For the sequence “QVQLVESGGGLVQAGGSLRLSCAASGRTFYKYVMGWYRQAPGKERELVAAITRSGGGTYYADSVKGRFTISRDNAKNTVYLQMNSLKPEDTAVYYCAVSGRSYYRSDYWGQGTQVTVSS”, the “polyreactivity (PSR sort gate)” value is on record as “high polyreactivity”.

Take “QVQLVESGGGLVQAGGSLRLSCAASGSILVRYSMGWYRQAPGKERELVAAITSGGSTYADSVKGRFTISRDNAKNTVYLQLNSLNPEDTAVYYCARDYFNREAFDYWGQGTQVTVSS”: the “polyreactivity (PSR sort gate)” value is “low polyreactivity”.

As for “QVQLVESGGGLVQAGGSLRLSCAASGSIFLKYAMGWYRQAPGKERELVATISRGGSTNYADSVKGRFTISRDNAKNTVYLQMNSLKPEDTAVYYCAAKYGRPYGTYGYKSLLVGDMYYWGQGTQVTVSS”, the “polyreactivity (PSR sort gate)” value is listed as “high polyreactivity”.

Take “QVQLVESGGGLVQAGGSLRLSCAASGGLFIGYAMGWYRQAPGKERELVAAISYSGGSTYYADSVKGRFTISRDNAKNTVYLQMNSLKPEDTAVYYCAAQVDRKYRWFNSWGQGTQVTVSS”: the “polyreactivity (PSR sort gate)” value is “high polyreactivity”.

Take “QVQLVESGGGLVQAGGSLRLSCAASGYIFRYYAMGWYRQAPGKERELVAVISSTGTSTYYADSVKGRFTISRDNAKNTVYLQMNSLKPEDTAVYYCAVKGYFSYWRYQSDYWGQGTQVTVSS”: the “polyreactivity (PSR sort gate)” value was “high polyreactivity”.

As to “QVQLVESVGGLVQAGGSLRLSCAASGSTSRIYAIGRYRKAPGKEREWVAAISRSGGSTYYADSVKGRFTISRDNAKNTVYLQMNSLKPEDTAVYYCAKDASKETSGGDYWGQGTQVTVSS”, the “polyreactivity (PSR sort gate)” value is “high polyreactivity”.

For the sequence “QVQLVESGGGLVQAGGSLRISCAASGSTFGYNGMGWYRQAPGKERELVAAISGGARTYADSVKGRFTISRDNAKNTVYLLMNSLKPEDTAVYYCAADSPVSVTADDVFWGQGTQVTVSS”, the “polyreactivity (PSR sort gate)” value was “low polyreactivity”.
